A short description of series [1]: Photostability under xenon lamp illumination. The series is classed as physicochemical. The settings on record: continuous illumination, 20 min. The procedure:
An aqueous solution of ICG ([…]) in PBS was prepared, and the fluorescence intensity with λex set at 780 nm and λem set at 800 nm was measured. A dispersion of NIR fluorescent P(EF-PLLA) nanoparticles in PBS was prepared, and diluted to give a similar fluorescence intensity to the dye at the same wavelengths. The excitation and emission slits were opened to 20 nm and 5 nm, respectively. Each of the samples was illuminated continuously with a xenon lamp, and the fluorescence intensity was measured over a period of 20 min by a Cary Eclipse fluorescence spectrophotometer (Agilent Technologies Inc.). Intensity values were normalized for comparison.

The conditions of series [2]: cited from earlier work.
Series [3] concerns HCT116 human colon cancer cells. Nature of the series: XTT cell viability, HCT116. The series is classed as cell-based. The procedure:
HCT116 human colon cancer cells were treated with 0.01 mg/mL NPs, hollow or containing 1.66 μg Dox, non-conjugated and conjugated to 35 ng TRAIL. Free Dox, free TRAIL and PBS served as control groups. Absorption was measured for all samples, each in six, with TECAN spectrophotometer to determine the cell viability. […] It was chosen to continue with the TRAIL-PEG-Dox NPs, as PEGylation modifies the physical and chemical properties of the drug, and can decrease immunogenicity and improve drug solubility.

For the molecule `CC1(C)C(/C=C/C=C/C=C/C=C2\N(CCCCS(=O)(=O)O)c3ccc4ccccc4c3C2(C)C)=[N+](CCCCS(=O)(=O)[O-])c2ccc3ccccc3c21` [free ICG, indocyanine green], the “fluorescence intensity during illumination” value in series [1] is listed as “decreased significantly”.
`N[C@@H](Cc1c[nH]cn1)C(=O)O` [histidine]: the “pKa of α-amine group” value in series [2] is 9.33.

B1: PEG-TRAIL NPs: hollow NPs (without Dox) conjugated to TRAIL via PEG (conjugate, UniProt P50591 1-281, looked up)
Tumor necrosis factor ligand …: MAMMEVQGGPSLGQTCVLIVIFTVLLQSLCVAVTYVYFTNELKQMQDKYSKSGIACFLKEDDSYWDPNDEESMNSPCWQVKWQLRQLVRKMILRTSEETISTVQEKQQNISPLVRERGPQRVAAHITGTRGRSNTLSSPNSKNEKALGRKINSWESSRSGHSFLSNLHLRNGELVIHEKGFYYIYSQTYFRFQEEIKENTKNDKQMVQYIYKYTSYPDPILLMKSARNSCWSKDAEYGLYSIYQGGIFELKENDRIFVSVTNEHLIDMDHEASFFGAFLVG
modifications: PEG-linked to hollow nanoparticles
Regarding B1, the toxic effect entry in series [3] (0.01 mg/mL NPs, 24 h and 72 h) was “did not have a toxic effect”.

B2: free TRAIL: TNF-related apoptosis-inducing ligand (protein, UniProt P50591 1-281, looked up)
Tumor necrosis factor ligand …: B1 Tumor necrosis factor ligand …
Regarding B2, the cell viability course result in series [3] (after 72 h) was “recovery in the cell viability”. In addition, the toxicity result in series [3] (over 24 h) is on record as “good toxicity”.

These data come from patent publication US10300024B2, “Proteinoid compounds, process of preparing same and uses thereof” (Bar-Ilan University, priority 2015, dated 2019).
